We go through one molecule from patent US6801029B2, “Microwave dielectric spectroscopy method and apparatus” (Wisconsin Alumni Research Foundation, priority 2001, dated 2004).

Data set [1] can be described thus: Thermal unfolding of RNase A by microwave dielectric spectroscopy (slot antenna s11 log mag, Lorentzian peak positions fitted to 2-state model). It counts as physicochemical. The text has this:
A coaxial-fed slot antenna 25 was manufactured from RO-4002 (Rogers Corporation, Rogers, Conn.) on a LPKF ProtoMat using BoardMaster 3.0 (LPKF Laser & Electronics AG, Germany). The coaxial feed was composed of semi-rigid PE-047SR (Pasternack Enterprises, Irvine, Calif.). The dimensions of the antenna were chosen to yield a resonant frequency of approximately 3 GHz. This frequency was selected to optimize the interaction of microwave radiation with “bound water,” assumed to undergo dispersion at lower frequencies than bulk solution. The active range of the antenna extends from approximately 500 MHz to 6.5 GHz. The antenna was attached to a 0.5 cm Suprasil fused quartz UV/VIS cuvette 21 (Hellma GmbH & Co., Germany).
Microwave measurements were made utilizing as the analyzer 37 a Hewlett-Packard 8720D vector network analyzer (VNA) (Agilent Technologies, Palo Alto, Calif.) set to measure s11. The lowest power range −15 to +5 dBm was used for all experiments. The slot antenna 25 was attached to the VNA 37 using a standard 50 Ω coaxial cable 35. UV/VIS absorption measurements were performed using a Hewlett-Packard 8452A diode-array spectrophotometer with a water-thermostatted cell holder (Agilent Technologies, Palo Alto, Calif.), functioning as the optical spectrometer 28 with detector 32. Both instruments were controlled using LabView (National Instruments Corporation, Austin, Tex.) via a GPIB connection.
Data analysis was performed in one of two ways: 1) Center frequency was determined by fitting spectra at each change of temperature or other environmental conditions to a number of Lorentzian peaks; or 2) Peak amplitude was determined for spectra at each change of temperature or other environmental condition. Commercial software such as Microcal Origin was used for both types of fitting. Data, either center frequency or amplitude, could be then plotted as a function of environmental condition and subjected to further analysis. For thermal unfolding experiments, peak center frequency determination yielded better results, perhaps because many peaks overlap. Peak amplitude determination was more successful for hormone binding experiments, probably because peaks were well-spaced and non-overlapping.
(§1) Bovine pancreatic ribonuclease A (RNase A) was purchased from Sigma (St. Louis, Mo.) and used without further purification. All other reagents were purchased from Fisher Scientific (Pittsburgh, Pa.). Lyophilized protein was dissolved in a solution of 30 mM sodium acetate/acetic acid, 100 mM sodium chloride, pH 4.5, then dialyzed exhaustively before use. Protein concentrations were determined by UV-VIS spectroscopy. The extinction coefficient was taken as 0.72 mg^−1mL cm^−1 at 278 nm. Concentrations of RNase A varied from 0.2 to 1 mg/mL (14.6 to 73.0 μM). The environmental condition of the sample that was changed was temperature. RNase A was unfolded reversibly by increasing the temperature of the sample at a maximum rate of 0.4° C./min. The unfolding reaction was monitored using UV/VIS absorbance at 288 nm.
As with buffer alone, peak positions shift with temperature, and most peaks broaden with increasing temperature.
Spectra were fitted to eight Lorentzian peaks. […] Four peaks, identified in Table 1 below, responded in a sigmoidal fashion characteristic of cooperative unfolding; the remaining peaks increased or decreased monotonically with temperature.

Data set [2] is described as follows: Thermal unfolding of RNase A monitored by UV/VIS absorbance at 288 nm, two-state model. The class given is physicochemical. The method, then: as §1
The unfolding of RNase A may be observed using UV/VIS absorbance. At low protein concentrations, the absorbance of RNase A follows Beer's Law:
where A(λ) is the absorbance, ε(λ,T) is the extinction coefficient, c is the protein concentration, and l is the path length. For selected proteins, the extinction coefficient ε depends not only on the wavelength λ and the temperature T, but also on the protein conformation. Such a dependence of ε on conformation is called a hyperchromic shift. For RNase A, the maximal hyperchromic shift occurs at approximately 288 nm.
Here, N refers to native protein, U refers to unfolded protein, Tm is the midpoint temperature (at which FN=FU=0.5 and ΔG=0 kcal/mol), ΔHm is the enthalpy at the midpoint temperature, α is the observed signal (in this case, UV/VIS absorbance), and αN and αU are the observed signals for native and unfolded protein, respectively. Since the unfolding of RNase A is a unimolecular reaction, thermodynamic parameters such as enthalpy, free energy, and mid-point temperature are independent of concentration. […] Analysis of unfolding of RNase A yields an average Tm of 58.2° C. and an average ΔHm of 74.9 kcal/mol.
Other researchers have implied that the presence of microwave radiation destabilizes protein, and may enhance rates of folding and unfolding. […] The differences in Tm and ΔHm are within experimental error and are not thought to be significant.

Setting [3] is: Lorentzian peak 1 (1.5 GHz at 30° C.).
The mark [4] stands for this setting: Lorentzian peak 4 (3.1 GHz at 30° C.).
Where [5] appears, read: Lorentzian peak 5 (3.5 GHz at 30° C.).
The mark [6] stands for this setting: Lorentzian peak 7 (4.4 GHz at 30° C.).
The mark [7] stands for this setting: simultaneous UV/VIS and microwave measurements.

B1: Bovine pancreatic ribonuclease A (protein, UniProt P61823 27-150, looked up)
Ribonuclease pancreatic: KETAAAKFERQHMDSSTSAASSSNYCNQMMKSRNLTKDRCKPVNTFVHESLADVQAVCSQKNVACKNGQTNCYQSYSTMSITDCRETGSSKYPNCAYKTTQANKHIIVACEGNPYVPVHFDASV
notes: Bovine pancreatic ribonuclease A purchased from Sigma, used without further purification
Regarding B1, the melting temperature (Tm) is 50.4 °C in data set [1] (setting [3]); 58.3 °C in data set [1] (setting [4]); 53.3 °C in data set [1] (setting [5]); 60.9 °C in data set [1] (setting [6]); 55.21 °C in data set [1] (fit to all peaks (1, 4, 5, 7)); 58.09 °C in data set [2] (UV/VIS alone). In data set [2] (setting [7]), the melting temperature (Tm) turned out to be 58.91 °C. The ΔHm was 66.0 kcal/mol in data set [1] (setting [3]); 161.4 kcal/mol in data set [1] (setting [4]); 72.1 kcal/mol in data set [1] (setting [5]); 76.8 kcal/mol in data set [1] (setting [6]); 54.2 kcal/mol in data set [1] (fit to all peaks (1, 4, 5, 7)); 76.8 kcal/mol in data set [2] (UV/VIS alone). This molecule returned a ΔHm in data set [2] (setting [7]) of 65.1 kcal/mol. The “average Tm (midpoint temperature of unfolding)” value in data set [2] (average, UV/VIS absorbance 288 nm, 30 mM sodium acetate/acetic acid, 100 mM NaCl, pH 4.5) came to 58.2 °C. The “average ΔHm (enthalpy at midpoint temperature)” value in data set [2] (average, UV/VIS absorbance 288 nm, pH 4.5 buffer) is recorded as 74.9 kcal/mol.

As usually defined, the Tm is the temperature at the midpoint of the melting transition.
